According to paper PMC10268231 (Nature, 2021):

B1: PRIM1 (natural protein, human)
chain: ETFDPTELPELLKLYYRRLFPYSQYYRWLNYGGVIKNYFQHREFSFTLKDDIYIRYQSFNNQSDLEKEMQKMNPYKIDIGAVYSHRPNQHNTVKLGAFQAQEKELVFDIDMTDYDDVRRCCSSADICPKCWTLMTMAIRIIDRALKEDFGFKHRLWVYSGRRGVHCWVCDESVRKLSSAVRSGIVEYLSLVKGGQDVKKKVHLSEKIHPFIRKSINIIKKYFEEYALVNQDILENKESWDKILALVPETIHDELQQSFQKSHNSLQRWEHLKKVASRYQNNIKNDKYGPWLEWEIMLQYCFPRLDINVSKGINHLLKSPFSVHPKTGRISVPIDLQKVDQFDPFTVPTISFICRELDAISTNEEEKEENEAESDVKHRTRDYKKTSLAPYVKVFEHFLENLDKSRKGELLKKSDLQKDF

Columns and labels:
[1] = target: B1; assay: cryo-EM structure
[2] = target: T1, PRIM2 (human, UniProt P49643-1 1-509); assay: cryo-EM structure
T1 sequence (looked up): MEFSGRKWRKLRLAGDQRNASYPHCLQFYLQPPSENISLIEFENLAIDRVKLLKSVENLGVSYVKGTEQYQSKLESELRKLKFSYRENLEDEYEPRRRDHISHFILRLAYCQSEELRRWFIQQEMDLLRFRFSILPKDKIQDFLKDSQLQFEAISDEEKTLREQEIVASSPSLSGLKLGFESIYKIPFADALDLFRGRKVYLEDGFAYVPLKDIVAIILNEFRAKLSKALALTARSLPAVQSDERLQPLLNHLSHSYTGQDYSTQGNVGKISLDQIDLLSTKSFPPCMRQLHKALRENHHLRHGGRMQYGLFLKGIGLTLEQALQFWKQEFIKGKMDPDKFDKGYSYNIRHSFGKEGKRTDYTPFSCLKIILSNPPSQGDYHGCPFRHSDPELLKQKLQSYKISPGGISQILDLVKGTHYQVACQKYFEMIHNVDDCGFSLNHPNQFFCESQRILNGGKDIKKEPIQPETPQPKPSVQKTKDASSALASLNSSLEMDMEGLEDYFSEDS

| Binder | binding result [1] | binding result [2] |
| --- | --- | --- |
| STN1 (natural protein, human) QPGSSRCEEETPSLLWGLDPVFLAFAKLYIRDILDMKESRQVPGVFLYNGHPIKQVDVLGTVIGVRERDAFYSYGVDDSTGVINCICWKKLNTESVSAAPSAARELSLTSQLKKLQETIEQKTKIEIGDTIRVRGSIRTYREEREIHATTYYKVDDPVWNIQIARMLELPTIYRKVYDQPFHSSALEKEEALSNPGALDLPSLTSLLSEKAKEFLMENRVQSFYQQELEMVESLLSLANQPVIHSASSDQVNFKKDTTSKAIHSIFKNAIQLLQEKGLVFQKDDGFDNLYYVTREDKDLHRKIHRIIQQDCQKPNHMEKGCHFLHILACARLSIRPGLSEAVLQQVLELLEDQSDIVSTMEHYYTAF | binds | – |
| B1 | – | binds |
